Assay results as given in US20120076782A1 (MorphoSys, published 2012).
Read-outs that look alike come from different tables or passages of the source.

Tests used:
[1] = biological target: CD20 on cell lines (UniProt P11836); experiment: cell-based or functional assay
[2] = biological target: T1, human CD38 on cells or tissue (human, UniProt P28907 1-300)
[3] = biological target: T1, human CD38 on cells or tissue; experiment: cell-based or functional assay
[4] = biological target: T1, human CD38 on cells or tissue; experiment: FACS Scatchard, IgG1 on RPMI8226 MM cells; mean of at least 2 determinations
[5] = biological target: T1, human CD38 on cells or tissue; experiment: cell-based or functional assay; remark: listed apart in the source
[6] = biological target: T1, human CD38 on cells or tissue; experiment: cell-based or functional assay; remark: listed apart in the source
[7] = biological target: T1, human CD38 on cells or tissue; experiment: cell-based or functional assay; remark: listed apart in the source
[8] = biological target: T1, human CD38 on cells or tissue; experiment: cell-based or functional assay; remark: listed apart in the source
[9] = biological target: T2, hCD38 Fc fusion protein (aa 45-273) (human, UniProt P28907 45-273); experiment: ELISA; antigen coated at 5 µg/ml, anti-human Fab alkaline phosphatase conjugate, fluorescence Ex/Em 430/535 nm
T2 construct: Making of this construct is not described; also called C-terminally deleted format; not shown: Fc part (not described for this construct)

[10] = biological target: T3, bovine serum albumine (bovine, UniProt P02769 25-607); experiment: as above
T3 construct: Control antigen coated on ELISA wells; also called BSA

[11] = biological target: T4, hCD38 Fc fusion protein (aa 45-300) (human, UniProt P28907 45-300); experiment: SPR (Biacore 3000), Fab over directly immobilized CD38-Fc fusion protein; mean of at least 2 determinations
T4 construct: produced in HEK293; also called full-length hCD38 Fc-fusion protein; soluble CD38-Fc

[12] = biological target: T5, cynomolgus monkey CD38 on cells or tissue (cynomolgus monkey, UniProt Q5VAN0 1-301); experiment: FACS on lymphocytes; IHC on spleen, lymph-nodes
T5 construct: whole, on cells

[13] = biological target: T2, hCD38 Fc fusion protein (aa 45-273); experiment: ELISA; antigen coated at 5 µg/ml, anti-murine Fab alkaline phosphatase conjugate, fluorescence Ex/Em 430/535 nm
[14] = biological target: T3, bovine serum albumine; experiment: as above

T3 sequence (P02769 25-607 limits assumed): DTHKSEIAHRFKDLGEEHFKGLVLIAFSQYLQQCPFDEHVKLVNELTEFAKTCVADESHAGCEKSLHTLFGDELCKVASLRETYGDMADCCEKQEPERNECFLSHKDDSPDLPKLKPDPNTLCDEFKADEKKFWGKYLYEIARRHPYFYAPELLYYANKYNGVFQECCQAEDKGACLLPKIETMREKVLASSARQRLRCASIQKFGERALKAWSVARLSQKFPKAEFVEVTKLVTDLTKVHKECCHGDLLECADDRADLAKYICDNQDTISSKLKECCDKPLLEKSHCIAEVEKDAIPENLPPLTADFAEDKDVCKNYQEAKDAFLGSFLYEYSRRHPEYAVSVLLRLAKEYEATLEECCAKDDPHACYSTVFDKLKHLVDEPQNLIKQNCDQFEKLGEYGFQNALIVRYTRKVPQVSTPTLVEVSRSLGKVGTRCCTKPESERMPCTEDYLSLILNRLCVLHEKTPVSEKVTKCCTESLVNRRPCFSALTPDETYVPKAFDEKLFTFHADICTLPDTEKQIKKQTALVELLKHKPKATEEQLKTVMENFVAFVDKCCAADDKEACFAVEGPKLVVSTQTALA
Sequence of CD20 on cell lines (P11836 whole entry): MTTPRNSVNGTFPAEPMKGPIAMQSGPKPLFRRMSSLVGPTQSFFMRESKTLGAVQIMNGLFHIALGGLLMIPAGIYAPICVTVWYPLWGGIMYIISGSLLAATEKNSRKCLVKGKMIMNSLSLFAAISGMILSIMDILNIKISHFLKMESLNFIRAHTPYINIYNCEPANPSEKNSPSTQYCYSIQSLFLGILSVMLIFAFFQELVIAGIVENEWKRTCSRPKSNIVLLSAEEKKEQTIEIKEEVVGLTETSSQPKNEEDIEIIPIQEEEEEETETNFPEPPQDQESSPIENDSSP
T5 sequence (Q5VAN0 whole entry): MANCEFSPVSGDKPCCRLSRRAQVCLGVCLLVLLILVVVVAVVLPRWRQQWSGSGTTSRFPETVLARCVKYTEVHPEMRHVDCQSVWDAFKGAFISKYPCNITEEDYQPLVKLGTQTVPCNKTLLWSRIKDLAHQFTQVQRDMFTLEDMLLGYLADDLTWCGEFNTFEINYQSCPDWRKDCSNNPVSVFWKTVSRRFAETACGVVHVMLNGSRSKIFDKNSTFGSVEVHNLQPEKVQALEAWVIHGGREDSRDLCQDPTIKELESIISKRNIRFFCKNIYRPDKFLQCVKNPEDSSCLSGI

Rituximab (antibody)
Namalwa (max. spec. Killing), o/n incubation [1]: < 1% | Raji (max. spec. killing), o/n incubation [1]: 9%

chimeric OKT10 (antibody)
max. specific killing in ADCC, NCI-H929 cells (MM), E:T 30:1, 5 µg/ml; column PC [2]: 54% | ADCC EC50 [nM], LP-1 target cells [3]: 5.23 nM | ADCC EC50 [nM], RPMI8226 target cells [3]: 4.1 nM | CDC EC50 [nM], CHO-transfectants [3]: 9.3 nM | Kd [4]: 8280 pM

B1: MOR03077 human IgG1 (antibody, V domains shown)
VH: QVQLVQSGAEVKKPGASVKVSCKASGYTFTSYSINWVRQAPGQGLEWMGYIDPNRGNTNYAQKFQGRVTMTRDTSISTAYMELSSLRSEDTAVYYCAREYIYFIHGMLDFWGQGTLVTVSS
VL: DIVMTQSPLSLPVTPGEPASISCRSSQSLLFIDGNNYLNWYLQKPGQSPQLLIYLGSNRASGVPDRFSGSGSGTDFTLKISRVEAEDVGVYYCQQYSSKSATFGQGTKVEIKR
notes: also called MAb#1
CDC EC50, LP-1 cells [5]: 5600 pM | CDC EC50 on hCD38-transfectants, fold better than reference antibody chOKT10 [5]: 3 fold | ADCC EC50 [nM], LP-1 target cells [6]: 0.6 nM | ADCC EC50 [nM], RPMI8226 target cells [6]: 0.08 nM | CDC EC50 [nM], CHO-transfectants (mean from 2 determinations) [6]: 0.8 nM | CDC EC50 [nM], CHO-transfectants (mean from 3 determinations) [6]: 0.94 nM | MM-samples (max. spec. Killing), 4 hrs incubation [7]: 21% | Namalwa (max. spec. Killing), o/n incubation [7]: 11% | Raji (max. spec. killing), o/n incubation [7]: 21% | ADCC EC50 values in [nM], MM Samples (purified primary MM-cells) [8]: 0.08 nM | Kd [4]: 890 pM | binding result [9]: no binding (tested: 10 µg/ml) | binding result [10]: no binding (tested: 10 µg/ml)

B2: MOR03077 Fab (Fab, V domains shown)
VH: QVQLVQSGAEVKKPGASVKVSCKASGYTFTSYSINWVRQAPGQGLEWMGYIDPNRGNTNYAQKFQGRVTMTRDTSISTAYMELSSLRSEDTAVYYCAREYIYFIHGMLDFWGQGTLVTVSS
VL: DIVMTQSPLSLPVTPGEPASISCRSSQSLLFIDGNNYLNWYLQKPGQSPQLLIYLGSNRASGVPDRFSGSGSGTDFTLKISRVEAEDVGVYYCQQYSSKSATFGQGTKVEIKR
notes: also called antibody no
Kd [11]: 56000 pM

B3: MOR03080 human IgG1 (antibody, V domains shown)
VH: QVQLVESGGGLVQPGGSLRLSCAASGFTFSSYGMHWVRQAPGKGLEWVSNIYSDGSNTFYADSVKGRFTISRDNSKNTLYLQMNSLRAEDTAVYYCARNMYRWPFHYFFDYWGQGTLVTVSS
VL: DIELTQPPSVSVAPGQTARISCSGDNIGNKYVSWYQQKPGQAPVVVIYGDNNRPSGIPERFSGSNSGNTATLTISGTQAEDEADYYCSSYDSSYFVFGGGTKLTVLG
notes: also called MAb#3
ADCC EC50 [nM], LP-1 target cells [6]: 0.17 nM | ADCC EC50 [nM], RPMI8226 target cells [6]: 0.05 nM | CDC EC50 [nM], CHO-transfectants (mean from 2 determinations) [6]: 3.2 nM | CDC EC50 [nM], CHO-transfectants (mean from 3 determinations) [6]: 2.93 nM | MM-samples (max. spec. Killing), 4 hrs incubation [7]: 4% | Namalwa (max. spec. Killing), o/n incubation [7]: < 1% | Raji (max. spec. killing), o/n incubation [7]: 4% | Kd [4]: 470 pM | binding result [9]: no binding (tested: 10 µg/ml) | binding result [10]: no binding (tested: 10 µg/ml)

B4: MOR03080 human-mouse chimeric IgG2a (antibody, V domains shown)
VH: QVQLVESGGGLVQPGGSLRLSCAASGFTFSSYGMHWVRQAPGKGLEWVSNIYSDGSNTFYADSVKGRFTISRDNSKNTLYLQMNSLRAEDTAVYYCARNMYRWPFHYFFDYWGQGTLVTVSS
VL: DIELTQPPSVSVAPGQTARISCSGDNIGNKYVSWYQQKPGQAPVVVIYGDNNRPSGIPERFSGSNSGNTATLTISGTQAEDEADYYCSSYDSSYFVFGGGTKLTVLG
notes: Chimeric IgG2a: human variable regions of MOR03080 and murine constant regions; also called MAb#3 (chimeric: human variable domaine/murine Fc 2a); mu03080
binding result [12]: binds | binding result [13]: no binding (tested: 10 µg/ml) | binding result [14]: no binding (tested: 10 µg/ml)

B5: MOR03080 Fab (Fab, V domains shown)
VH: QVQLVESGGGLVQPGGSLRLSCAASGFTFSSYGMHWVRQAPGKGLEWVSNIYSDGSNTFYADSVKGRFTISRDNSKNTLYLQMNSLRAEDTAVYYCARNMYRWPFHYFFDYWGQGTLVTVSS
VL: DIELTQPPSVSVAPGQTARISCSGDNIGNKYVSWYQQKPGQAPVVVIYGDNNRPSGIPERFSGSNSGNTATLTISGTQAEDEADYYCSSYDSSYFVFGGGTKLTVLG
notes: also called antibody no
Kd [11]: 27500 pM

B6: MOR03079 human IgG1 (antibody, V domains shown)
VH: QVQLVESGGGLVQPGGSLRLSCAASGFTFSNYGMHWVRQAPGKGLEWVSNIRSDGSWTYYADSVKGRFTISRDNSKNTLYLQMNSLRAEDTAVYYCARRYWSKSHASVTDYWGQGTLVTVSS
VL: DIQMTQSPSSLSASVGDRVTITCRASQDISAFLNWYQQKPGKAPKLLIYKVSNLQSGVPSRFSGSGSGTDFTLTISSLQPEDFATYYCQQAYSGSITFGQGTKVEIKR
notes: also called MAb#2
CDC EC50, LP-1 cells [5]: 550 pM | ADCC EC50 [nM], LP-1 target cells [6]: 0.09 nM | ADCC EC50 [nM], RPMI8226 target cells [6]: 0.04 nM | CDC EC50 [nM], CHO-transfectants [6]: 0.41 nM | MM-samples (max. spec. Killing), 4 hrs incubation [7]: 24% | Namalwa (EC50), killing by cross-linking [7]: 80 pM | Namalwa (max. spec. Killing), o/n incubation [7]: 18% | Raji (EC50), killing by cross-linking [7]: 80 pM | Raji (max. spec. killing), o/n incubation [7]: 21% | Kd [4]: 600 pM | binding result [9]: no binding (tested: 10 µg/ml) | binding result [10]: no binding (tested: 10 µg/ml)

B7: MOR03079 human-mouse chimeric IgG2a (antibody, V domains shown)
VH: QVQLVESGGGLVQPGGSLRLSCAASGFTFSNYGMHWVRQAPGKGLEWVSNIRSDGSWTYYADSVKGRFTISRDNSKNTLYLQMNSLRAEDTAVYYCARRYWSKSHASVTDYWGQGTLVTVSS
VL: DIQMTQSPSSLSASVGDRVTITCRASQDISAFLNWYQQKPGKAPKLLIYKVSNLQSGVPSRFSGSGSGTDFTLTISSLQPEDFATYYCQQAYSGSITFGQGTKVEIKR
notes: Chimeric IgG2a: human variable regions of MOR03079 fused to murine Fc gamma 2a constant regions; also called MAb#2 (chimeric: human variable domaine/murine Fc 2a); mu03079
binding result [13]: no binding (tested: 10 µg/ml) | binding result [14]: no binding (tested: 10 µg/ml)

B8: MOR03079 Fab (Fab, V domains shown)
VH: QVQLVESGGGLVQPGGSLRLSCAASGFTFSNYGMHWVRQAPGKGLEWVSNIRSDGSWTYYADSVKGRFTISRDNSKNTLYLQMNSLRAEDTAVYYCARRYWSKSHASVTDYWGQGTLVTVSS
VL: DIQMTQSPSSLSASVGDRVTITCRASQDISAFLNWYQQKPGKAPKLLIYKVSNLQSGVPSRFSGSGSGTDFTLTISSLQPEDFATYYCQQAYSGSITFGQGTKVEIKR
notes: also called antibody no
Kd [11]: 2400 pM

B9: MOR03100 human IgG1 (antibody, V domains shown)
VH: QVQLVESGGGLVQPGGSLRLSCAASGFTFSSNGMSWVRQAPGKGLEWVSNISYLSSSTYYADSVKGRFTISRDNSKNTLYLQMNSLRAEDTAVYYCARFYGYFNYADVWGQGTLVTVSS
VL: DIELTQPPSVSVAPGQTARISCSGDNIGHYYASWYQQKPGQAPVLVIYRDNDRPSGIPERFSGSNSGNTATLTISGTQAEDEADYYCQSYDYLHDFVFGGGTKLTVLG
notes: also called LAC 3100; MAb#4
ADCC EC50 [nM], LP-1 target cells [6]: 1 nM | ADCC EC50 [nM], RPMI8226 target cells [6]: 0.28 nM | CDC EC50 [nM], CHO-transfectants (mean from 2 determinations) [6]: 10.9 nM | CDC EC50 [nM], CHO-transfectants (mean from 4 determinations) [6]: 13.6 nM | Kd [4]: 6310 pM | binding result [9]: no binding (tested: 10 µg/ml) | binding result [10]: no binding (tested: 10 µg/ml)

B10: MOR03100 Fab (Fab, V domains shown)
VH: QVQLVESGGGLVQPGGSLRLSCAASGFTFSSNGMSWVRQAPGKGLEWVSNISYLSSSTYYADSVKGRFTISRDNSKNTLYLQMNSLRAEDTAVYYCARFYGYFNYADVWGQGTLVTVSS
VL: DIELTQPPSVSVAPGQTARISCSGDNIGHYYASWYQQKPGQAPVLVIYRDNDRPSGIPERFSGSNSGNTATLTISGTQAEDEADYYCQSYDYLHDFVFGGGTKLTVLG
notes: also called LAC 3100; antibody no; 3100
Kd [11]: 10000 pM
